Results as given in publication PMC10397247.

Key:
Assay in all cases: two-hybrid library CCmax;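 further: natural log of median RNA to DNA barcode read ratio; higher means stronger binding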
Conditions in all cases: mean of both orientations
4H3410-AA = molecular target: T1, 4H3410-AA
T1 chain: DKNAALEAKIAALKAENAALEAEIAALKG

4H2253-AA = molecular target: T2, 4H2253-AA
T2 chain: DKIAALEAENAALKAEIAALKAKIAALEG

4H930-AA = molecular target: T3, 4H930-AA
T3 chain: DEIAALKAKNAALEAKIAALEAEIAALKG

4H3165-AA = molecular target: T4, 4H3165-AA
T4 chain: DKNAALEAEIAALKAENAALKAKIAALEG

4H629-AA = molecular target: T5, 4H629-AA
T5 chain: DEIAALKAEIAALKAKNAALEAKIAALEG

4H2473-AA = molecular target: T6, 4H2473-AA
T6 chain: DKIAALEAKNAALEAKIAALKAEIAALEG

4H850-AA = molecular target: T7, 4H850-AA
T7 chain: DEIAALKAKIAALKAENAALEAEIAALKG

4H745-AA = molecular target: T8, 4H745-AA
T8 chain: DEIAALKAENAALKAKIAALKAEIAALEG

4H2274-AA = molecular target: T9, 4H2274-AA
T9 chain: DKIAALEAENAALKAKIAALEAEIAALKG

4H3606-AA = molecular target: T10, 4H3606-AA
T10 chain: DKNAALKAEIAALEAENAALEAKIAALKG

4H982-AA = molecular target: T11, 4H982-AA
T11 chain: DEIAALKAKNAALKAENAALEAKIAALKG

4H3631-AA = molecular target: T12, 4H3631-AA
T12 chain: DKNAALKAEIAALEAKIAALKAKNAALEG

4H94-AA = molecular target: T13, 4H94-AA
T13 chain: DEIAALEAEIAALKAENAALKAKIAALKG

4H536-AA = molecular target: T14, 4H536-AA
T14 chain: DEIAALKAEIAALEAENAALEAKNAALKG

4H710-AA = molecular target: T15, 4H710-AA
T15 chain: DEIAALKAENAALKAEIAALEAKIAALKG

4H3718-AA = molecular target: T16, 4H3718-AA
T16 chain: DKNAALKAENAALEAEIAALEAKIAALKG

4H2438-AA = molecular target: T17, 4H2438-AA
T17 chain: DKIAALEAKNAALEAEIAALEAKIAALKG

4H891-AA = molecular target: T18, 4H891-AA
T18 chain: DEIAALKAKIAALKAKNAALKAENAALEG

4H2698-AA = molecular target: T19, 4H2698-AA
T19 chain: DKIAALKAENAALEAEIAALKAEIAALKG

4H697-AA = molecular target: T20, 4H697-AA
T20 chain: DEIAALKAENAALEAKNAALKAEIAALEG

4H2725-AA = molecular target: T21, 4H2725-AA
T21 chain: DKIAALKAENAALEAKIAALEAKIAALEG

4H2330-AA = molecular target: T22, 4H2330-AA
T22 chain: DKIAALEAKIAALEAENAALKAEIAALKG

4H797-AA = molecular target: T23, 4H797-AA
T23 chain: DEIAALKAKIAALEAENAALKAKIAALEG

4H485-AA = molecular target: T24, 4H485-AA
T24 chain: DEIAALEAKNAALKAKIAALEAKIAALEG

4H310-AA = molecular target: T25, 4H310-AA
T25 chain: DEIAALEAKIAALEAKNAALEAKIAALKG

4H2611-AA = molecular target: T26, 4H2611-AA
T26 chain: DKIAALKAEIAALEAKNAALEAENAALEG

4H458-AA = molecular target: T27, 4H458-AA
T27 chain: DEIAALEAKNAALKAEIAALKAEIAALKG

4H3590-AA = molecular target: T28, 4H3590-AA
T28 chain: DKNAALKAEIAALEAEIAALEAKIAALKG

4H909-AA = molecular target: T29, 4H909-AA
T29 chain: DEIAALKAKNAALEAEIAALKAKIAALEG

4H3130-AA = molecular target: T30, 4H3130-AA
T30 chain: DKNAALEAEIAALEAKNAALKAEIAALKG

4H2865-AA = molecular target: T31, 4H2865-AA
T31 chain: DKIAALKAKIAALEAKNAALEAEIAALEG

4H3009-AA = molecular target: T32, 4H3009-AA
T32 chain: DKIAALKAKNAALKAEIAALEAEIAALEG

4H3697-AA = molecular target: T33, 4H3697-AA
T33 chain: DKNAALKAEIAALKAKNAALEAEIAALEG

4H570-AA = molecular target: T34, 4H570-AA
T34 chain: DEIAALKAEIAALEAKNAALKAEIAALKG

4H3865-AA = molecular target: T35, 4H3865-AA
T35 chain: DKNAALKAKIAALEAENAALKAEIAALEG

4H3016-AA = molecular target: T36, 4H3016-AA
T36 chain: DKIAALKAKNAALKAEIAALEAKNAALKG

An interaction score (4H3410-AA) of 1.9, an interaction score (4H2253-AA) of -0.556 and an interaction score (4H930-AA) of -1.4 were found for DENAALEAKIAALEAENAALKAKIAALKG [4H1310-AA] in this work. For the same binder, the interaction score (4H3165-AA) was 0.0119, the interaction score (4H629-AA) was -1.49 and the interaction score (4H2473-AA) was -1.02. It also gave an interaction score (4H850-AA) of 1.87, an interaction score (4H745-AA) of -1.11 and an interaction score (4H2274-AA) of -1.15. The interaction score (4H3606-AA) was 2.23, the interaction score (4H982-AA) was -1.4 and the interaction score (4H3631-AA) was -1.57. The interaction score (4H94-AA) was -0.926, the interaction score (4H536-AA) was -1.27 and the interaction score (4H710-AA) was -0.684. The interaction score (4H3718-AA) was -1.04, the interaction score (4H2438-AA) was -0.264 and the interaction score (4H891-AA) was -1.69. For the same binder, the interaction score (4H2698-AA) was -0.391, the interaction score (4H697-AA) was -1.05 and the interaction score (4H2725-AA) was -1.12. It also gave an interaction score (4H2330-AA) of 1.35, an interaction score (4H797-AA) of 1.92 and an interaction score (4H485-AA) of -1.08. The interaction score (4H310-AA) was -0.748, the interaction score (4H2611-AA) was -1.46 and the interaction score (4H458-AA) was -1.3. For the same binder, the interaction score (4H3590-AA) was -0.24, the interaction score (4H909-AA) was -1.21 and the interaction score (4H3130-AA) was 0.822. It also gave an interaction score (4H2865-AA) of 1.76, an interaction score (4H3009-AA) of 0.0502 and an interaction score (4H3697-AA) of 0.439. For the same binder, the interaction score (4H570-AA) was 0.408, the interaction score (4H3865-AA) was 2.2 and the interaction score (4H3016-AA) was 0.425.
